Measurements taken from PMC2806608.
pKd: −log10 of the molar value.

Target: human FcμR on BW5147 T cell transductants (human) (UniProt O60667)
Test: radioligand binding

Sequence of UniProt O60667 (O60667 17-390): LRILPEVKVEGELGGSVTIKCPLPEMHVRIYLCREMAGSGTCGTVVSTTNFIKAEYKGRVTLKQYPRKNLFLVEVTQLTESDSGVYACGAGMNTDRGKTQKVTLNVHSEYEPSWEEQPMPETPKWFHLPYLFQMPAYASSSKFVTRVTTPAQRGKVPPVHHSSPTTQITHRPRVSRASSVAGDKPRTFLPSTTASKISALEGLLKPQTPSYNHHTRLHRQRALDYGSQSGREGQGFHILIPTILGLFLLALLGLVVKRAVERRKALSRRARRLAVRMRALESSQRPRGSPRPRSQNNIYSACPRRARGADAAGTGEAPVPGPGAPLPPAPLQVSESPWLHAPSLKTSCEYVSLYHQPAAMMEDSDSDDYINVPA

pKd: 7.97
Substance: ^125I-labeled human IgM myeloma protein (antibody)
